Series [1] has as its system HeLa Kyoto. The experiment in a line: solubility change mitosis vs G1/S (difference of NP-40 vs SDS log2 ratios) (log2 ratio difference); higher = more soluble in mitosis.
For series [2], the system named is HeLa Kyoto. The experiment in a line: melting temperature (median over replicates), in situ; higher = more thermally stable.
The subject of series [3] is HeLa Kyoto. The experiment in a line: solubility in G1/S (NP-40 vs SDS abundance) (log2 ratio); higher = more soluble. The note with it: cell cycle stage: G1/S.
Series [4] deals with HeLa Kyoto. As to the kind of experiment: thermal stability score vs G1/S (z-score of summed log2 fold changes over temperatures); higher = more thermally stable than in G1/S.
Setting [5] is: cell cycle stage: early G1 (4.5 h after nocodazole release).

Consider 6 substances from the supplement of paper PMC5998384.
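Wherever melting temperature (median over replicates), in situ is given: HeLa Kyoto cells synchronized by double thymidine or nocodazole block, proteins quantified by TMT10plex mass spectrometry, three independent biological replicates.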
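Wherever solubility change mitosis vs G1/S (difference of NP-40 vs SDS log2 ratios) is given: synchronized HeLa Kyoto cells (double thymidine block for G1/S, nocodazole release for mitosis), protein amounts in NP-40 versus SDS lysates quantified by mass spectrometry, three biological replicates.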
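Wherever solubility in G1/S (NP-40 vs SDS abundance) is given: HeLa Kyoto cells arrested at G1/S by double thymidine block, proteins quantified by TMT10plex mass spectrometry in mild NP-40 versus SDS extracts, three biological replicates.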
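Wherever thermal stability score vs G1/S (z-score of summed log2 fold changes over temperatures) is given: synchronized HeLa Kyoto cells, proteins quantified by TMT10plex mass spectrometry, three biological replicates, mitosis taken 0.5 h after nocodazole release, G1/S directly after double thymidine block.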

Regarding “MWRVKKLSLSLSPSPQTGKPSMRTPLRELTLQPGALTNSGKRSPACSSLTPSLCKLGLQEGSNNSSPVDFVNNKRTDLSSEHFSHSSKWLETCQHESDEQPLDPIPQISSTPKTSEEAVDPLGNYMVKTIVLVPSPLGQQQDMIFEARLDTMAETNSISLNGPLRTDDLVREEVAPCMGDRFSEVAAVSEKPIFQESPSHLLEESPPNPCSEQLHCSKESLSSRTEAVREDLVPSESNAFLPSSVLWLSPSTALAADFRVNHVDPEEEIVEHGAMEEREMRFPTHPKESETEDQALVSSVEDILSTCLTPNLVEMESQEAPGPAVEDVGRILGSDTESWMSPLAWLEKGVNTSVMLENLRQSLSLPSMLRDAAIGTTPFSTCSVGTWFTPSAPQEKSTNTSQTGLVGTKHSTSETEQLLCGRPPDLTALSRHDLEDNLLSSLVILEVLSRQLRDWKSQLAVPHPETQDSSTQTDTSHSGITNKLQHLKESHEMGQALQQARNVMQSWVLISKELISLLHLSLLHLEEDKTTVSQESRRAETLVCCCFDLLKKLRAKLQSLKAEREEARHREEMALRGKDAAEIVLEAFCAHASQRISQLEQDLASMREFRGLLKDAQTQLVGLHAKQEELVQQTVSLTSTLQQDWRSMQLDYTTWTALLSRSRQLTEKLTVKSQQALQERDVAIEEKQEVSRVLEQVSAQLEECKGQTEQLELENSRLATDLRAQLQILANMDSQLKELQSQHTHCAQDLAMKDELLCQLTQSNEEQAAQWQKEEMALKHMQAELQQQQAVLAKEVRDLKETLEFADQENQVAHLELGQVECQLKTTLEVLRERSLQCENLKDTVENLTAKLASTIADNQEQDLEKTRQYSQKLGLLTEQLQSLTLFLQTKLKEKTEQETLLLSTACPPTQEHPLPNDRTFLGSILTAVADEEPESTPVPLLGSDKSAFTRVASMVSLQPAETPGMEESLAEMSIMTTELQSLCSLLQESKEEAIRTLQRKICELQARLQAQEEQHQEVQKAKEADIEKLNQALCLRYKNEKELQEVIQQQNEKILEQIDKSGELISLREEVTHLTRSLRRAETETKVLQEALAGQLDSNCQPMATNWIQEKVWLSQEVDKLRVMFLEMKNEKEKLMIKFQSHRNILEENLRRSDKELEKLDDIVQHIYKTLLSIPEVVRGCKELQGLLEFLS [SPAG5]”, in the series on HeLa Kyoto [1], the “solubility change mitosis (log2)” value is -0.134. In addition, the melting temperature in the series with HeLa Kyoto [2] (cell cycle stage: G1/S) was determined as 48.2 °C; with HeLa Kyoto [2] (cell cycle stage: mitosis) it was 48.4 °C. In addition, the “solubility in G1/S (log2)” value in the series with HeLa Kyoto [3] came out at 0.306. Besides, the thermal stability score with HeLa Kyoto [4] (setting [5]) was determined as 0.87; in the series with HeLa Kyoto [4] (cell cycle stage: mitosis) it was 2.82.
As for “MYGASGGRAKPERKSGAKEEAGPGGAGGGGSRVELLVFGYACKLFRDDERALAQEQGQHLIPWMGDHKILIDRYDGRGHLHDLSEYDAEYSTWNRDYQLSEEEARIEALCDEERYLALHTDLLEEEARQEEEYKRLSEALAEDGSYNAVGFTYGSDYYDPSEPTEEEEPSKQREKNEAENLEENEEPFVAPLGLSVPSDVELPPTAKMHAIIERTASFVCRQGAQFEIMLKAKQARNSQFDFLRFDHYLNPYYKFIQKAMKEGRYTVLAENKSDEKKKSGVSSDNEDDDDEEDGNYLHPSLFASKKCNRLEELMKPLKVVDPDHPLAALVRKAQADSSTPTPHNADGAPVQPSQVEYTADSTVAAMYYSYYMLPDGTYCLAPPPPGIDVTTYYSTLPAGVTVSNSPGVTTTAPPPPGTTPLPPPTTAETSSGATSTTTTTSALAPVAAIIPPPPDVQPVIDKLAEYVARNGLKFETSVRAKNDQRFEFLQPWHQYNAYYEFKKQFFLQKEGGDSMQAVSAPEEAPTDSAPEKPSDAGEDGAPEDAAEVGARAGSGGKKEASSSKTVPDGKLVKASFAPISFAIKAKENDLLPLEKNRVKLDDDSDDDEESKEGQESSSSAANTNPAVAPPCVVVEEKKPQLTQEELEAKQAKQKLEDRLAAAAREKLAQASKESKEKQLQAERKRKAALFLQTLKNPLPEAEAGKIEESPFSVEESSTTPCPLLTGGRPLPTLEVKPPDRPSSKSKDPPREEEKEKKKKKHKKRSRTRSRSPKYHSSSKSRSRSHSKAKHSLPSAYRTVRRSRSRSRSPRRRAHSPERRREERSVPTAYRVSRSPGASRKRTRSRSPHEKKKKRRSRSRTKSKARSQSVSPSKQAAPRPAAPAAHSAHSASVSPVESRGSSQERSRGVSQEKEAQISSAIVSSVQSKITQDLMAKVRAMLAASKNLQTSAS [SFSWAP]”, the “solubility change mitosis (log2)” value with HeLa Kyoto [1] worked out at 0.468. For the same substance, the melting temperature with HeLa Kyoto [2] (cell cycle stage: G1/S) was 50.4 °C; in the series with HeLa Kyoto [2] (cell cycle stage: mitosis) it was 50.6 °C. The “solubility in G1/S (log2)” value in the series with HeLa Kyoto [3] was -0.526. Also, the figures for the thermal stability score with HeLa Kyoto [4] (setting [5]) and in the series with HeLa Kyoto [4] (cell cycle stage: mitosis) were -0.391 and -0.0438, respectively.
Take MYH9: in the series with HeLa Kyoto [1], the “solubility change mitosis (log2)” value was -0.117. For the same substance, the melting temperature in the series on HeLa Kyoto [2] (cell cycle stage: G1/S) stood at 53.4 °C; with HeLa Kyoto [2] (cell cycle stage: mitosis) it was 52.1 °C. Further, the “solubility in G1/S (log2)” value in the series on HeLa Kyoto [3] was determined as 0.1. The thermal stability score with HeLa Kyoto [4] (setting [5]) was -1.58; with HeLa Kyoto [4] (cell cycle stage: mitosis), 0.618.
Consider MYO10, for which the “solubility change mitosis (log2)” value with HeLa Kyoto [1] was -0.176. Also, the melting temperature with HeLa Kyoto [2] (cell cycle stage: G1/S) was determined as 48.3 °C; with HeLa Kyoto [2] (cell cycle stage: mitosis), 49.4 °C. Also, the “solubility in G1/S (log2)” value with HeLa Kyoto [3] was -0.269. Besides, the thermal stability score with HeLa Kyoto [4] (setting [5]) was 0.691; in the series with HeLa Kyoto [4] (cell cycle stage: mitosis), 0.867.
With “MYTAIPQSGSPFPGSVQDPGLHVWRVEKLKPVPVAQENQGVFFSGDSYLVLHNGPEEVSHLHLWIGQQSSRDEQGACAVLAVHLNTLLGERPVQHREVQGNESDLFMSYFPRGLKYQEGGVESAFHKTSTGAPAAIKKLYQVKGKKNIRATERALNWDSFNTGDCFILDLGQNIFAWCGGKSNILERNKARDLALAIRDSERQGKAQVEIVTDGEEPAEMIQVLGPKPALKEGNPEEDLTADKANAQAAALYKVSDATGQMNLTKVADSSPFALELLISDDCFVLDNGLCGKIYIWKGRKANEKERQAALQVAEGFISRMQYAPNTQVEILPQGHESPIFKQFFKDWK [CAPG]”, the “solubility change mitosis (log2)” value in the series with HeLa Kyoto [1] was -0.0974. In addition, the values for the melting temperature in the series with HeLa Kyoto [2] (cell cycle stage: G1/S) and in the series on HeLa Kyoto [2] (cell cycle stage: mitosis) were 50.2 °C and 50.3 °C, respectively. The “solubility in G1/S (log2)” value in the series on HeLa Kyoto [3] came out at 0.272. In addition, the figures for the thermal stability score in the series with HeLa Kyoto [4] (setting [5]) and in the series on HeLa Kyoto [4] (cell cycle stage: mitosis) were 0.941 and 0.63, respectively.
Take “MYTLLSGLYKYMFQKDEYCILILGLDNAGKTTFLEQSKTRFNKNYKGMSLSKITTTVGLNIGTVDVGKARLMFWDLGGQEELQSLWDKYYAECHGVIYVIDSTDEERLAESKQAFEKVVTSEALCGVPVLVLANKQDVETCLSIPDIKTAFSDCTSKIGRRDCLTQACSALTGKGVREGIEWMVKCVVRNVHRPPRQRDIT [ARFRP1]”: the “solubility change mitosis (log2)” value with HeLa Kyoto [1] was -0.0831. This substance also gave a melting temperature with HeLa Kyoto [2] (cell cycle stage: mitosis) of 52.8 °C. In the series with HeLa Kyoto [3], the “solubility in G1/S (log2)” value came to 0.0143. The thermal stability score was 0.162 with HeLa Kyoto [4] (setting [5]) and -0.992 in the series on HeLa Kyoto [4] (cell cycle stage: mitosis).
